Experimental data taken from patent US20240252641A1 (TCR2 THERAPEUTICS, published 2024).

Assays:
[1] = molecular target: T1, human CD70, recombinant, N-terminally biotinylated (residues 39-193) (human, UniProt P32970 39-193, N-terminal biotin); assay: SPR
T1 construct: range 39-193; the same entry is used there; also called biotinylated human CD70; CD70 biotin
T1 sequence (looked up): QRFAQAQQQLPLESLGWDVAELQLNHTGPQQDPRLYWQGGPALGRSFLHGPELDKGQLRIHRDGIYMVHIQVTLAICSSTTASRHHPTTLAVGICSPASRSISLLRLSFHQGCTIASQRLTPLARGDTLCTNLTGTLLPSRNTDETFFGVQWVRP
Outline: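 Surface plasmon resonance (SPR) was used to determine the affinity (Kd) of human scFv antibodies for recombinant, N-terminally biotinylated human antigen. These antibodies were selected from a naïve human library panned against the CD70 extracellular domain, spanning aa39-193.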

[2] = molecular target: T2, CD70 on cells (CHO-CD70, JVM-3, U266, Raji, THP-1, T cells) (human, UniProt P32970 1-193); assay: 1.25 µg/mL scFv on U266 cells
T2 construct: whole, on cells; also called cell-surface CD70
T2 sequence (looked up): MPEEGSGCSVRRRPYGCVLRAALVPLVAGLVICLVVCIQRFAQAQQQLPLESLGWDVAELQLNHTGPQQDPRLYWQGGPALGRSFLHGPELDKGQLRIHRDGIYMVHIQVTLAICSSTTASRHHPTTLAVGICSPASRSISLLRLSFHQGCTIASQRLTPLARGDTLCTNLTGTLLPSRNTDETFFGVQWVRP
Outline: (§1)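 Human scFv antibodies were raised by panning a naïve human library against the CD70 extracellular domain (aa39-193). They were tested for binding to tumour cell lines with high CD70 expression (CHO-CD70, JVM3, U266) and low CD70 expression (CHO WT, K562). Cell binding was recorded per cell line, and the detection method is not stated.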

[3] = molecular target: T2, CD70 on cells (CHO-CD70, JVM-3, U266, …); assay: 1.25 µg/mL scFv on JVM-3 cells
Outline: as §1

[4] = molecular target: T2, CD70 on cells (CHO-CD70, JVM-3, U266, …); assay: 1.25 µg/mL scFv on CHO-CD70 cells
Outline: as §1

[5] = molecular target: T1, human CD70, recombinant, N-terminally …; assay: CD27 blocking ELISA, 3 µM scFv, strep/HRP
[6] = molecular target: T1, human CD70, recombinant, N-terminally …; assay: CD27 blocking ELISA, 3 µM scFv, anti-His/HRP; also: unit not given here
Experimental: Human scFv antibodies binding CD70 were generated by panning a naïve human library with the extracellular domain (aa39-193) of CD70. 53 antibodies were identified. The ability of CD27 to block CD70 binding of the identified antibodies was measured by ELISA using two different assays. In the first assay, CD27 and his-tagged scFv anti-CD70 binders were simultaneously added to surface bound CD70, and the ability of the scFv binders to bind CD70 was detected with anti-His HRP. In the second assay, plate-bound CD70 was pre-incubated with CD27 for 30 minutes, and then additional CD27 and the his-tagged scFv anti-CD70 binder was added. The ability of the scFv binders to bind CD70 was detected with anti-His HRP. FIG. 34 is a schematic of the two different CD27 blocking assays. CD70 affinity was also measured by SPR analysis. scFv antibodies were also tested for their ability to bind tumor cell lines with high (CHO-CD70, JVM3, and U266) and low levels (CHO WT and K562 of CD70 expression. Results for 39 antibodies are shown in Table 1 below.

[7] = molecular target: T2, CD70 on cells (CHO-CD70, JVM-3, U266, …); assay: on Raji cells
[8] = molecular target: T2, CD70 on cells (CHO-CD70, JVM-3, U266, …); assay: on U266 cells
[9] = molecular target: T2, CD70 on cells (CHO-CD70, JVM-3, U266, …); assay: on JVM-3 cells

Binder	Kd [1] [nM]	cell binding [2]	cell binding [3]	cell binding [4]	strep/HRP [5]	anti His/HRP [6]	cell binding [7]	cell binding [8]	cell binding [9]
43-TC4-VII-C04 (scFv, His-tagged) scFv: QVQLLESGGGLVQPGRSLRLSCAASGFTFDDYAMHWVRQAPGKGLEWVSGISWNSGSIGYADSVKGRFTISRDNAKNSLYLQMNSLRAEDTAVYYCARDLVYYYGMDVWGQGTTVTVSSGGSGGSGGSGGSQSVLTQPPSVSGTPGQGVSISCSGSSSNIGWKTVNWYQQVPGMAPKLLIYSDNQRPSGVPDRFSGSKSATSASLAISGLQSEDEADYYCASWDASVNAPVFGGGTKLTVL	69.9	20000	45000	723000	1.44	1.81	–	–	–
59-TC4-VII-F02 (scFv, His-tagged) scFv: QLQLQESGPGLVKPSGTLSLTCAVSGGSISSSNWWSWVRQPPGKGLEWIGEIYHSGSTNYNPSLKSRVTISVDKSKNQFSLKLSSVTAADTAVYYCAGPGPDPNDAFDIWGQGTMVTVSSGGSGGSGGSGGSSSELTQDPAVSVALGQTVRITCQGDSLRSYYASWYQQLPGTAPKLLIYQDSKRPSGIPERFSGSNSGNTATLTISGTQAMDEADYYCQAWDSSTAVFGGGTKLTVL	101	18500	52100	850000	1.43	2.06	–	–	–
14-TC4-XIII-A01 (scFv, His-tagged) scFv: QVQLVQSGAEVKKPGASVKVSCKASGYTFTGYYMNWVRQAPGQGLEWMAWINPNTGDTNYAQKFQGRVTMTRDTSINTAYIELSRLTSDDTAVYYCARVGDYYDRSGYYRHDAFDIWGQGTMVTVSSGGSGGSGGSGGSSSELTQDPAVSVALGQTVRITCQGDSLRSYYASWYQQKPGQAPVLVIYGKNNRPSGIPDRFSGSSSGNTASLTITGAQAMDEADYYCQAWDSSTGVVFGGGTKVTVL	2830	953	1290	111000	1.46	1.74	–	–	–
58-TC7-III-G11 (scFv, His-tagged) scFv: EVQLVQSGGGVVQPGRSLRLSCAASGFTFSSYAMHWVRQAPGKGLEWVAVISYDGSNKYYADSVKGRFTISRDNSKNTLYLQMNSLRAEDTAVYYCATNSGYDSDYYYGMDVWGQGTTVTVSSGGSGGSGGSGGSQSVLTQPPSMSGAPGQRVTISCTGSSSNIGAGYDVHWYQHLPGTGPKLLIHGNTNRPSGVPDRFSGSKSGTSASLAITGLQAEDEADYYCQSYDNSLGGYVVFGGGTKVTVL	8900	12000	14700	277000	0.503	1.97	–	–	–
13G6 (antibody, V domains shown, alloy mouse hybridoma antibody; also called 13G6E8) VH: QVQLVESGGGVVQPGKSLRLSCAASGFTFSNYGIHWVRQAPGKGLEWVAVIWYDGSYKYYADSVKGRFTISRDNSKNTLYLQMNSLRAEDTALYYCARDTVDTYGSFDYWGQGTLVTVSS VL: DIQLTQSPSFLSASVGDRVTITGRASQGISSYLAWYQQKPGKAPNLLIYAASTLQSGVPSRFSGSGSGTEFTLTISSLQPEDFATYYCQQHNRYPITFGQGTRLEIK	–	–	–	–	–	–	144000	389000	479000
9A11 (antibody, V domains shown, alloy mouse hybridoma antibody; also called 9A11E8) VH: QVQLVESGGGVVQPGRSLRLSCAASGFTFSNYGMYWVRQAPGKGLEWVAVIWYDGSKKYYGDSVKGRFTISRDNSKNTLYLQMNSLRAEDTAVYYCARDEDTVMASFDYWGQGTLVTVSS VL: DIQLTQSPSFLSASVGDRVTITCRASQDISIYLAWYQQKPGKAPQLLIYAASTLQSGVPSRFSGSGSGTEFTLTISSLQPEDFATYSCQQLNSYPITFGGGTKVEIK	–	–	–	–	–	–	145000	351000	410000
9A1 (antibody, V domains shown, alloy mouse hybridoma antibody; also called 9A1H6) VH: QVQLVQSGAEVKKPGASVKVSCKASGYSFTGYYMHWVRQAPGQGLEWMGWINPKSGGTSYAQQFQGRVTMTRDTSMSTVYMELTRLRADDTAVYYCARLYYSGWYGDYWGQGTLVTVSS VL: DIQMTQSPSSLSASVGDRVTITCQASQDINNYLNWYQQKPGKVPNLLIYDASNLETGVPSRFSGSGSGTDFTFTISSLQPEDIATYYCQQYNNPPITFGQGTRLEIK	–	–	–	–	–	–	139000	324000	401000
30-TC1.2-I-C08-1 (scFv, His-tagged) scFv: QMQLVQSGAEVKKPGASVKVSCKASGYTFTSYGISWVRQAPGQGLEWMGWINPNTGGTDYAQKFQGRVTITRDTSITTGYMELSRLRSDDTAVYYCARHYYYGMDVWGQGTTVTVSSGGSGGSGGSGGSDIQLTQSPSSLSASVGDRVTITCQASQDISNYLNWYQQKPGKAPKLLIYDASNLETGVPSRFSGSGSGTDFTFTISSLQPEDIATYYCQQYDNLPLTFGGGTKVEIK	67.3	17400	37400	503000	1.5	1.83	–	–	–
14-TC4-III-A04 (scFv, His-tagged) scFv: QVQLVQSGAEVKKPGASVKVSCKASGYTFTGYYMNWVRQAPGQGLEWMAWINPNTGDTNYAQKFQGRVTMTRDTSINTAYIELSRLTSDDTAVYYCARVGDYYDRSGYYRHDAFDIWGQGTMVTVSSGGSGGSGGSGGSSSELTQDPAVSVALGQTVRITCQGDSLRSYYASWYQQKPGQAPVLVIYGKNNRPSGIPDRFSGSSSGNTASLTITGAQAEDEADYYCQAWDSSTGVFGGGTKVTVL	13.7	20400	17000	610000	0.359	2.81	–	–	–
14-TC6-I-F03 (scFv, His-tagged) scFv: QVQLVQSGAEVKKPGASVKVSCKASGYTFTGYYMNWVRQAPGQGLEWMAWINPNTGDTNYAQKFQGRVTMTRDTSINTAYIELSRLTSDDTAVYYCARVGDYYDRSGYYRHDAFDIWGQGTMVTVSSGGSGGSGGSGGSSSELTQDPAVSVALGQTVRITCQGDSLRSYYASWYQQKPGQAPVLVIYGKNNRPSGIPDRFSGSNSGNTATLTISGTQAMDEADYYCQAWDSSTVFGGGTKVTVL	289	1430	1880	33400	0.954	2.47	–	–	–
13-TC7-I-E11 (scFv, His-tagged) scFv: QVQLQQWGAGLLKPSETLSLTCAVYGGSFSGYYWSWIRQPPGKGLEWIGEINHSGSTNYNPSLKSRVTISVDTSKNQFSLKLSSVTAADTAVYYCARSRRPYWYFDLWGRGTLVTVSSGGSGGSGGSGGSQSVLTQPPSVSGAPGQRVTISCTGSSSNIGAGYDVHWYQQLPGTAPKLLIYGDSNRPSGVPDRFSGSGSGTSASLAITGLQAEDEGDYYCQSFDSNLSRYVFGAGTKLTVL	44.7	32000	80500	532000	1.42	2.29	–	–	–
1-TC4-I-C10 (scFv, His-tagged; also called 1867) scFv: EVQLVQSGAEVKKPGESLKISCKGSGYSFTSYWIGWVRQMPGKGLEWMGIIYPGDSDTRYSPSFQGQVTISADKSISTAYLQWSSLKASDTAMYYCAISRTESYVMDVWGQGTTVTVSSGGSGGSGGSGGSQSALTQPRSVSGSPGQSVTISCTGTSSDVGGYNYVSWYQQHPGKAPKLMIYDVTNRPSGVPDRFSASKSDNTATLTVSGVQAEDEADYYCSSYAGSHELFGGGTKLTVL	6.17	48800	73300	978000	0.075	2.83	–	–	–
